These results are taken from US6258776A, “Calcium-regulated kinase” (priority 1997, dated 2001).

Data set [1] relates to S100 proteins, including S100B. The note with it: cited from earlier work.
Data set [2] relates to M960618 melanoma cells (Ndr activity). The data set can be described thus: W-7 effect on Ndr activity in S100B-positive melanoma cells. The format is cell-based. As to conditions: Homo sapiens, 1.25 h; read-out: reduction of Ndr activity.
The next data set relates to HA-Ndr. Put plainly: in vitro incubation of immunoprecipitated HA-Ndr with PP2A. The format is biochemical. The note with it: PP2A plus 100 nM okadaic acid. The method, then: In order to provide evidence that PP2A directly interacts with and thereby affects Ndr activity, HA-Ndr is immunoprecipitated from cells treated with 20 μM A23187 or with solvent alone for 5 min. In parallel, HA-Ndr is immunoprecipitated from cells treated with 1 μM okadaic acid or solvent alone ("Control") for 1 h. Each immunoprecipitate is then incubated in vitro for 1 h with either buffer alone, with purified PP2A (dimeric form consisting of catalytic subunit and 65 kDa regulatory subunit) or with PP2A plus 100 nM okadaic acid. Thereafter, the immunoprecipitates are washed and assayed for Ndr peptide kinase activity as described in Example 5.

In another data set the test system is PP2A. As to conditions: concentrations used in cells (okadaic acid 1 μM, cyclosporin A 1 μM); cited from earlier work.
The test system of another data set is HA-Ndr WT. As to conditions: 1 μM, 1 h. Here is the method:
COS-1 cells expressing HA-Ndr WT (as in Example 5) are treated either with solvent alone (Control) or with a panel of cell permeable protein phosphatase inhibitors. The cells are then extracted, HA-Ndr is immunoprecipitated with the anti-HA mAb 12CA5, and the kinase activity of Ndr measured as before, using the peptide substrate.

Data set [3] has as its system protein phosphatase 1 (PP1). As to conditions: concentrations used in cells; cited from earlier work.
A further data set concerns S100B-Ndr. Put plainly: inhibition of binding of S100B to Ndr.
The subject of a further data set is Ndr Δ1-84. Put plainly: immune complex kinase assay with S100B and Ca^2+, Ndr lacking amino terminal domain. Format: biochemical, human. The method, then:
(§1) In immune complex kinase assays and autophosphorylation assays (see below), COS-1 cells are transfected as described above or with pECE-Ndr-K118A. After 72 h, cells are washed with ice-cold PBS and lysed in lysis buffer (20 mM Tris-HCl pH 8.0, 150 mM NaCl, 1% (v/v) NP-40, 10% (v/v) glycerol, 5 mM EDTA, 0.5 mM EGTA, 0.5 mM phenylmethyl-sulfonyl fluoride, 4 μM leupeptin, 1 mM benzamidine, 1 μM microcystin and 1 mM Na3 VO4). Lysates are centrifuged at 14,000 g for 20 min. Duplicate aliquots of supernatant (250 μg, 2.5 mg/ml) are incubated for 2 h at 0° C. with 10 μg/ml Ab^1-465. Immune complexes are precipitated by addition of 2 μl protein A-Sepharose (Pharmacia) and mixing for 1 h. The beads are then washed twice with lysis buffer, once with lysis buffer containing 1 M NaCl, with lysis buffer again, and finally twice with 20 mM Tris-HCl pH 7.5. Beads are resuspended in 30 μl buffer containing 20 mM Tris-HCl pH 7.5, 10 mM MgCl2, 100 μM CaCl2, 1 mM dithiothreitol, 100 μM [γ-^32 P] ATP (0.5 μCi/μls), 1 mM Ndr substrate peptide ([…], SEQ. ID. No. 1), 1 μM cAMP-dependent protein kinase inhibitor peptide (PKI; purchased from Bachem, Bubendorf, Swit zerland), 4 μM leupeptin, 1 mM benzamidine, 1 μM microcystin and, in some assays, 20 μM bovine S100B. After 60 min at 30° C., phosphate incorporation into the peptide is quantitated as described above. […]

The subject of another data set is Ndr. Put plainly: Ndr activity in cell lines with and without S100B expression. Format: cell-based, human. As to conditions: p<0.05, two-tailed Students' t test. The method, then:
COS cells are transfected with pECE-Ndr or with empty vector (pECE). 20 μg of these extracts are immunoprecipitated with anti-Ndr (which has been covalently cross-linked to protein A-Sepharose using dimethyl pimelimidate). 400 μg of extract from HeLa cells is immunoprecipitated in parallel. The immunoprecipitates are separated by SDS-PAGE and then immunoblotted using biotinylated anti-Ndr and streptavidin-peroxidase. […] A band of ~53 kDa is also present in HeLa and COS-1 cells and probably represents a proteolytic fragment of full-length Ndr.
Using the method described above, the 12 cell lines are analysed for Ndr abundance. The amount of Ndr (in ng per 400 μg cell extract) is quantitated by densitometry of the blots, and comparison with blots containing known amounts of GST-Ndr. The same cell lines are also assayed for the presence or absence of S100B, by immunoprecipitation of cell extracts with anti-S100B, followed by immunoblotting of the precipitates.

For data set [4], the target named is T1, GST-Ndr (Homo sapiens, UniProt Q15208).
T1 construct: made in house
The data set can be described thus: preincubation of immobilised GST-Ndr followed by peptide kinase assay. The format is biochemical. The method, then: Activation of Ndr by S100B appears to be independent of kinase autophosphorylation. However, increased autophosphorylation is observed: GST-Ndr is immobilised on agarose and preincubated with or without Ca^2+ -S100B, in the presence or absence of Mg-ATP (to either allow or not allow autophosphorylation). The agarose beads are then washed and assayed for Ndr activity as set out herein with radiolabelled ATP and peptide substrate, and in the presence or absence of Ca^2+ -S100B. Preincubation of GST-Ndr with Mg-ATP alone increases its peptide kinase activity, showing that autophosphorylation activates Ndr. […] Preincubation with Ca^2+ S100B alone has no effect, because activation by Ca^2+ -S100B in the preincubation step is mediated by Ndr autophosphorylation.
Ca^2+ -S100B increases the rate Ndr autophosphorylation by 2.5-fold, and it increases autophosphorylation-dependent Ndr activation by 2-fold. However, the total activation of Ndr by Ca^2+ -S100B is larger than this (5- to 10-fold). Thus, the increased autophosphorylation of Ndr caused by Ca^2+ -S100B is not by itself sufficient to account for Ndr activation. In addition, Ca^2+ -S100B probably stimulates Ndr kinase activity directly, in an autophosphorylation-independent manner.

A further data set concerns wild-type Ndr. The data set can be described thus: immune complex kinase assay with S100B and Ca^2+, wild-type Ndr. The format is biochemical, human. As to conditions: Ca^2+ -S100B. Here is the method:
as §1

Data set [5] addresses T1, GST-Ndr. Put plainly: GST-Ndr peptide kinase assay with calcium-binding proteins. Format: biochemical. The method, then:
1 μg GST-Ndr WT or GST-Ndr K118A, either in solution or immobilised on glutathione-agarose beads, is assayed in a 20 μl reaction containing 20 mM Tris-HCl pH 7.5, 5 mM MgCl2, 1 mM dithiothreitol, 100 μM [γ-^32 P] […] Reactions are supplemented with either 2 mM EGTA or various concentrations of CaCl2. Bovine CaM, bovine S100B (both from Sigma) or recombinant calcium-binding proteins. After incubation at 30° C. for 60 min, aliquots of the reaction are spotted on to P81 phosphocellulose paper and counted as above.
In brief, coding regions are cloned into the PGEMEX expression vector (Promega) and resultant plasmids used to transform E. coli BL-21 LysS cells. After induction, S100 proteins are purified by ammonium sulphate precipitation followed by Ca^2+ -dependent phenyl-Sepharose chromatography.
The proteins are added together with Ca^2+ into GST-N dr peptide kinase assays. The proteins tested comprised S100A1 (S100α), S100A2 (S100L), S100A4 (CAPL), S100A6 (calcyclin) and S100B (S100β); α-parvalbumin is included as a negative control.
In order to estimate the binding affinity of S100B for Ndr, kinase assays are performed in which GST-Ndr is mixed with various concentrations of purified bovine S100B homodimer, in the presence or absence of calcium.
To determine whether activation of Ndr by S100B occurs at physiological Ca^2+ concentrations, Ndr activity is assayed with or without added S100B over a range of Ca^2+ concentrations.

Data set [6] concerns the target T1, GST-Ndr. Put plainly: Ndr autophosphorylation assay. The format is biochemical. The method, then:
In immune complex kinase assays and autophosphorylation assays (see below), COS-1 cells are transfected as described above or with pECE-Ndr-K118A. After 72 h, cells are washed with ice-cold PBS and lysed in lysis buffer (20 mM Tris-HCl pH 8.0, 150 mM NaCl, 1% (v/v) NP-40, 10% (v/v) glycerol, 5 mM EDTA, 0.5 mM EGTA, 0.5 mM phenylmethyl-sulfonyl fluoride, 4 μM leupeptin, 1 mM benzamidine, 1 μM microcystin and 1 mM Na3 VO4). Lysates are centrifuged at 14,000 g for 20 min. Duplicate aliquots of supernatant (250 μg, 2.5 mg/ml) are incubated for 2 h at 0° C. with 10 μg/ml Ab^1-465. Immune complexes are precipitated by addition of 2 μl protein A-Sepharose (Pharmacia) and mixing for 1 h. The beads are then washed twice with lysis buffer, once with lysis buffer containing 1 M NaCl, with lysis buffer again, and finally twice with 20 mM Tris-HCl pH 7.5. […] After 60 min at 30° C., phosphate incorporation into the peptide is quantitated as described above.
The proteins are added together with Ca^2+ into GST-N dr peptide kinase assays. […] The increased kinase activity observed in the presence of S100A1 and S100B is not due to contaminating kinase activity, because no activity is recorded when kinase-negative GST-Ndr, containing a point mutation (Lys^118→Ala) in the ATP binding pocket, is used in place of wild-type GST-Ndr. […]

The subject of the next data set is Ndr Δ65-81. The data set can be described thus: immune complex kinase assay with S100B and Ca^2+, Ndr deletion of amino acids 65-81. Format: biochemical, human. The method, then:
as §1

T1 sequence (Q15208 whole entry): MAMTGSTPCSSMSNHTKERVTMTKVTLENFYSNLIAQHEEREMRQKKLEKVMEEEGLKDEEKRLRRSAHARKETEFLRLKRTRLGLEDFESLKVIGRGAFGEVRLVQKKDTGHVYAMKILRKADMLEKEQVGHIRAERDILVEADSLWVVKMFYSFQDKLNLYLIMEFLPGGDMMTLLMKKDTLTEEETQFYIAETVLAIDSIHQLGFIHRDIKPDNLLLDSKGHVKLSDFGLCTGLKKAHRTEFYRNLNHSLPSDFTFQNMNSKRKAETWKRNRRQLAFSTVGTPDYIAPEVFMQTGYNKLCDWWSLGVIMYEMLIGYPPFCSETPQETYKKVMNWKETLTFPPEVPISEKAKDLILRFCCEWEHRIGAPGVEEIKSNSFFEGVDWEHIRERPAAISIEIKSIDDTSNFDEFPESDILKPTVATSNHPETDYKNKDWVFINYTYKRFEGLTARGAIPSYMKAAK

As to `NCCCCCCNS(=O)(=O)c1cccc2c(Cl)cccc12` [W-7], in data set [1], the “binding to S100 proteins” value is listed as “binds to several S100 proteins, including S100B, in a Ca^2+ -dependent manner”. Further, the inhibition at 50 µM in data set [2] is ~80%.
`C=C1[C@@H](O)[C@@H]2O[C@]3(CC[C@H](/C=C/[C@@H](C)[C@@H]4CC(C)=C[C@@]5(O[C@H](C[C@@](C)(O)C(=O)O)CC[C@H]5O)O4)O3)CC[C@H]2O[C@@H]1[C@@H](O)C[C@H](C)[C@H]1O[C@@]2(CCCCO2)CC[C@H]1C` [okadaic acid]: the “prevention of inactivation of HA-Ndr by PP2A” value in the data set on HA-Ndr was “inactivation is prevented”. Further, in the data set with PP2A, the “inhibition of intracellular PP2A” value is on record as “completely inhibits intracellular PP2A”. The “activation of Ndr” value in the data set with HA-Ndr WT is listed as ~ 8 fold. The “effect on PP1” value in data set [3] was “does not affect protein phosphatase 1 (PP1)”.
Turning to “KRLRRSAHARKETEFLRLKRTRLGL [SEQ ID No.32]”, the “inhibition of binding of S100B to Ndr” value with S100B-Ndr is “effectively inhibit binding of S100B to Ndr”.

B1: S100B: EF hand calcium-binding protein of the S100 family; bovine S100B homodimer or recombinant (protein, UniProt P02638 2-92, looked up)
Protein S100-B: SELEKAVVALIDVFHQYSGREGDKHKLKKSELKELINNELSHFLEEIKEQEVVDKVMETLDSDGDGECDFQEFMAFVAMITTACHEFFEHE
B1: in the data set with Ndr Δ1-84, the “response to S100B” value is given as “failed to respond to S100B”. Also, the “Ndr average specific activity, S100B-positive versus S100B-negative cell lines” value in the data set on Ndr is recorded as ~ 2 fold. Further, the “increase in autophosphorylation-dependent Ndr activation” value in the data set with GST-Ndr [4] (Ca^2+ -S100B) came to 2 fold. Moreover, the “peptide kinase activity after preincubation” value in the data set with GST-Ndr [4] (preincubation with Ca^2+ -S100B alone) was “no effect”; with GST-Ndr [4] (preincubation with Mg-ATP and Ca^2+ -S100B) it was “even greater autoactivation of the peptide kinase activity”. Besides, in the data set on wild-type Ndr, the “degree of activation of immunoprecipitated Ndr” value is given as ~ 2 fold. Besides, the “maximal activation of Ndr” value is reported as “much lower” in the data set with GST-Ndr [5] (2 mM EGTA, without calcium) and ~ 7 fold with GST-Ndr [5] (presence of calcium, bovine S100B homodimer). Besides, the “activation of Ndr in the absence of calcium” value with GST-Ndr [5] (absence of calcium) is “partial activation of Ndr in the absence of calcium”. For the same molecule, the “increase in Ndr kinase activity” value with GST-Ndr [5] (added together with Ca^2+, 60 min, 30° C.) was 5-6 fold. Also, in the data set with GST-Ndr [6], the Ndr autophosphorylation result is recorded as “stimulated Ndr autophosphorylation”. Moreover, the “increase in rate of Ndr autophosphorylation” value with GST-Ndr [6] (Ca^2+ -S100B) is given as 2.5 fold. Also, the “sensitivity to S100B” value in the data set on Ndr Δ65-81 is reported as “ablated its sensitivity to S100B”.
